Source: publication PMC9651861 (2022)
Values belong to the binder of their own block, whether it stands above or below them.

How the values were obtained:
[1] = target: T1, human serum albumin (human, UniProt P02768 25-609); assay: BLI
[2] = target: T1, human serum albumin; assay: MST
[3] = target: T1, human serum albumin; assay: BLI; remark: listed apart in the source

Kd [1]: ~370 nM
B1: Nb.B201 (VHH)
VHH: QVQLQESGGGLVQAGGSLRLSCAASGYISDAYYMGWYRQAPGKEREFVATITHGTNTYYADSVKGRFTISRDNAKNTVYLQMNSLKPEDTAVYYCAVLETRSYSFRYWGQGTQVTVSS

Kd [3]: 412 nM
B4: DesAb-HSA-P2 (VHH)
VHH: EVQLEESGGGLVQPGGSLRLSCAASGFNIKDTYIGWVRQAPGKGEEWVASIYPTSGYTRYADSVKGRFTISADTSKNTAYLQMNSLRAEDTAVYYCAAGSAQAGNAEEAEEEFDYWGQGTLVTVSS

Kd [2]: 810 nM
B5: DesAb-HSA-P2, C-terminal cysteine variant labelled with Alexa Fluor 647 (VHH)
VHH: B4 VHH
modifications: Alexa Fluor 647 (maleimide) on the free C-terminal cysteine of the Asp-Cys-Glu motif

Kd [2]: 140 nM
B6: DesAb-HSA-P1, C-terminal cysteine variant labelled with Alexa Fluor 647 (VHH)
VHH: EVQLEESGGGLVQPGGSLRLSCAASGFNIKDTYIGWVRQAPGKGEEWVASIYPTSGYTRYADSVKGRFTISADTSKNTAYLQMNSLRAEDTAVYYCAAGSIQKSLQTAESILEEFDYWGQGTLVTVSS
modifications: Alexa Fluor 647 (maleimide) on the free C-terminal cysteine of the Asp-Cys-Glu motif

Continued, binder first:

B2: DesAb-HSA-D3, C-terminal cysteine variant labelled with Alexa Fluor 647 (VHH)
VHH: EVQLQESGGGLVQAGGSLRLSCAASGELYALISMGWFRQAPGKEREFVAAISRNGDNTYYTDSVKGRFTISRDNAKNTVELQMNSLKPEDTAVYYCAADKFASPDGSVTIMTNEYDYWGQGTQVTVSD
modifications: Alexa Fluor 647 (maleimide) on the free C-terminal cysteine of the Asp-Cys-Glu motif
Kd [2]: 146 nM

B3: DesAb-HSA-D3 (VHH)
VHH: B2 VHH
Kd [3]: 308 nM

B7: DesAb-HSA-P1 (VHH)
VHH: B6 VHH
Kd [3]: 279 nM
